For the assay, the target named is DREP2 CIDE domain (amino acids 1–84), wild-type (Drosophila melanogaster). The assay is described as follows: SEC-MALS; self-association; Superdex 200 HR 10/30 coupled to three-angle light scattering and refractive index detectors, 0.2 mL/min; wild type measured in 50 mM NaCl and in 1 M NaCl. A general note: Size exclusion chromatography separates by hydrodynamic size, large species first.

What is called stoichiometry N is the number of molecules, sites or subunits per partner or assembly. Take “DREP2 CIDE domain (amino acids 1–84), wild-type (domain or fragment)”: the stoichiometry N lay in the range of 16 to 18 molecules.

The values above are taken from paper PMC6292858.
